Source: publication PMC6888979 (The Journal of Experimental Medicine, 2019)

Target: the molecule itself

B1: soluble recombinant ectodomain of murine FIBCD1 (mFIBCD1^Ecto) (domain or fragment)
chain: NHTHTPGTAPPPIVSTGTAGANSALVTVERADSSHLSLLIDPRCPDLTDSFARLEGIQASILRALSEHQAQPRLDGAPELLDALADQLPRLLTRASELQAECAGLRKGHSLLGQGLSTLQSEQGRLIQLLSESQGHMAHLVNSVSDVLEALQRERGLGRPRVKADLQRAPSRGARPRGCANGSRPRDCLDVLLSGQQDDGVYSIFPTHYPAGFQVYCDMRTDGGGWTVFQRREDGSVNFFRGWEAYREGFGKLTGEHWLGLKRIHALTTQAAYELHVDLEDFDNGTAYAHYGSFGVGLFSVDPEEDGYPLTVADYSGTAGDSLLKHSGMRFTTKDRDSDHSENNCAAFYRGAWWYRNCHTSNLNGQYLRGAHASYADGVEWSSWTGWQYSLKFSEMKIRPVREDR
In the case of B1, the “stoichiometry N” value is reported as 4.
